Test: yeast display, Sf9 membrane polyspecificity reagent, FACS + sequencing; frameworks hold sequencing errors
Procedure, shortened: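 Sorting gates, low and high (top ~1%), were placed on anti-HA fluorescence to track expression and on streptavidin fluorescence to track reagent binding. A clone's polyreactivity label is taken from the gate it came out of. The reagent was 10% biotinylated, detergent-solubilized Sf9 membrane, applied for 1 hour at 4 °C to galactose-induced yeast display cells.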

Sequence	polyreactivity (PSR sort gate)
QVQLVESGGGLVQAGGILRLICAASGSTFPYNAMGWYRQAPGKERELVAAISSGGSTYYADSVNGRFTISRDNAKNTVYLELNSQKPEDTAVYYCAASLGKYIRSLGYGYWGQGTQVTVSS	high polyreactivity
QVQLVESGGGLVQAGGILRLSCAASGFIFALNAMGWYRQAPGKERELVATIDSTSGSTYYADSVKGRFTISRDNAKNTVYLQMNSLKPEDTAVYYCAVVHAQSAPMDYWGQGTQVTVSS	low polyreactivity
QVQLVESGGGLVQAGGILRLSCAASGFIFKSYAMGWYRQAPGKERELVAGITRRGGSTYYADSVKGRFTISRDNAKNTVYLQMNILKPEDTAVYYCNAGRKTADYDFLGQGTQVTVSS	high polyreactivity
QVQLVESGGGLVQAGGILRLSCAASGFNFSSYAMAWYRQAPGKERELVAAISGSGGTTYYADSVKGRFTISRDNANNTVYVLMNSLKPEDTAVYYCATRRGLVITKYGYDYWGQGTQVTVSS	high polyreactivity
QVQLVESGGGLVQAGGILRLSCAASGFTFYRNAMGWYRQAPGKERELVAAISIRSGRTYYADSLKGRFTISRDNAKNSVYLQMNSLKPEDTAVYYCNKVRLPRDPYNYWGQGTQVTVSS	high polyreactivity
QVQLVESGGGLVQAGGILRLSCAASGGIFSVYAMGWYRQAPGKERELVASITVSGGSTSYADSVKGRFTISRDNAKNTVYLQMNCLKPEDTAVYYCAADLLRYFGYYDYDSWGQGTQVTVSS	low polyreactivity
QVQLVESGGGLVQAGGILRLSCAASGITFKPYGMGWYRQAHGKESELVADITSGGITYYADSVKGRFTISRDNAKNTVYLQMNSLIAEDTAVYFCATGDLFVYYWGYVVRLYDFWGQGTQVTVSS	low polyreactivity
QVQLVESGGGLVQAGGILRLSCAASGLTFNYYDMGWYRQAPGKERELVAAISRSGTNTSYADSVKGRFTISRDNAKNTVYLQMNSLKPEDTAVYYCNSAGVYLAAGPYTANFNYNYWGQGTQVTVSS	low polyreactivity
QVQLVESGGGLVQAGGILRLSCAASGNIFPINAMGWYRQAPGKEREFVAAITRSGSRTYYADSVKGRFTISRDNAKNTVYLQMNSLKKEDTAVYYCADRGNSTPVYSRYGYWGQGTQVTVSS	low polyreactivity
QVQLVESGGGLVQAGGILRLSCAASGRIFAYYAMGWSRQAPGKERELVAAISGGGGSTYYADSVKGRFTISRDNAKNTVYLQMNSLKPEDTAVYYCAAKSSRYDYYYWGQGTQVTVSS	high polyreactivity
QVQLVESGGGLVQAGGILRLSCAASGRIFKYNAMGWYRQAPGKERELVAVITSGGSTYYADSVKGRFTISRDNAKNTVYLQMNSLKPEDTAVYYCAKKYYKVHKFDYCGQGTQVTVSS	low polyreactivity
QVQLVESGGGLVQAGGILRLSCAASGRIFRGYAMGWYIQAPAKERELVASIDWNGGRTYYADSEKGRFTISRDNAKNTVYLQMNSLKPEDTAVYYCAVLPYRTLYNYYYWGQGTQVTVSS	high polyreactivity
QVQLVESGGGLVQAGGILRLSCAASGRIFRYYAMGWYRQAPGKERELVAGITRGGTTNYADSVKGRFTISRDNAKNTVYLQMNSLKPEDTAVYYCAAETRRGIIGYDYWGQGTKVTVSS	high polyreactivity
QVQLVESGGGLVQAGGILRLSCAASGRIFSSYSMGWYRQAPGKESELVAAISRSGARTYYADSVKGRFTISRDYAKNTVYLQMNSLKPEDTAVYYCAAVTVAGYDYWGQGTQVTVSS	high polyreactivity
QVQLVESGGGLVQAGGILRLSCAASGRIFTPYTMGWYRQAPGKERELVATITWSGGSTYYADSVKGRFTISRDNAKNTVYLQMNSLKPEDTAVYYCAARPIYVWAEYDYWGQGTQVTVSS	low polyreactivity
QVQLVESGGGLVQAGGILRLSCAASGRIFYNYAMGWYRQAPGKERELGAAISGSGGSTYYADSVKGRFTISRDNAKNTVYLQMNSLKPEDTAVYYCSTSGPQYDSRNFDYWGQGTQVTVSS	low polyreactivity
QVQLVESGGGLVQAGGILRLSCAASGRIINIYAMGWYRQAPGKEREMVAAISGSGGRTSYADSVKGRFTFSRDNAKNTVYLQMNILKPEDTAVYYCAADYSYYTSFRYDYWGQGTQVTVSS	low polyreactivity
QVQLVESGGGLVQAGGILRLSCAASGRILVSYAMGWYRQAPGKERELVAAISRSGGSTYYADSVKGRFTISRDNAKNTVYLQMNSLKPEDTAVYYCNVYRFSRYDYWGQGTQVTVSS	high polyreactivity
QVQLVESGGGLVQAGGILRLSCAASGRTFYINGMGWYRQAPGKEREFVASITWRGGRTYYADSVKGRFTISRDNAKNTVYLQMNSLKPEDTAVYYCIAVGLGGRAPSRWYTHYYCGQGTQVTVSS	high polyreactivity
QVQLVESGGGLVQAGGILRLSCAASGRTLSKNAMGWYRQAPGKERELVATISSVGRTNYADSVKGRFTISRDNEKITVYLQMISLKPEDTAVYYCSARRFRGSYYWGQGTQVTVSS	high polyreactivity
QVQLVESGGGLVQAGGILRLSCAASGRTVHNYVMAWYRQAPWNERELVAAITAGVGSTYYADSVKGRFTISRDNAKNTVYFQMNSLKPEDTAVYYCAARKVWGYTYGYPYYYWGQGTQETVSS	high polyreactivity
QVQLVESGGGLVQAGGILRLSCAASGSIFGLYAMVWYRQAPGKERELVAAISPRGGSTYYADSVKGRFTISRDNAKNTVYLQMNILKPEDTAVYYCNRDYIRYALGHDYWGQGPQVTVSS	high polyreactivity

Sequence	polyreactivity (PSR sort gate)
QVQLVESGGGLVQAGGILRLSCAASGSIFRQNPMGWYRKAPGKERELVAAISSGGSTYYADSVKGRFTISRDNAKNNVYLQRNSLKPEDTAVYYCAAYHSFVWGDDYWGQGTQVTVSS	low polyreactivity
QVQLVESGGGLVQAGGILRLSCAASGSIFRVYAMGWYRQAPGKERELVAGITSTGTRTYYADSVKGRFTISRDNAKNPVSLQKNSLKPEDTAVYYCAARDTYRKAYYYWGHGTQVTVSS	high polyreactivity
QVQLVESGGGLVQAGGILRLSCAASGSIFVKYTMGWYRQAPGKERELVAAISFRGGSTYYADSVKGRFTISRDNAKNTVYLQMNSLKPEDTAVYYCNADGGWWPEYYWGQGTQVTVSS	low polyreactivity
QVQLVESGGGLVQAGGILRLSCAASGSIIYVNAMGWYRQAPGKERELVAAISVRGGRTYYADSVKGRFTISRDNAKNSVYLQMISLKPEDTAVYDCAAGWYYYARPRVYNAREYYYWGQGTQVNVSS	high polyreactivity
QVQLVESGGGLVQAGGILRLSCAASGSIVSYYDMGWYRQAPGKERELVAAITYTGGSTYYADSVKGRFTISRDNAKNTVYLQMNSLKPEDTEVYYCAAQWTIYPLFNSWGQGNQVTVSS	low polyreactivity
QVQLVESGGGLVQAGGILRLSCAASGSNFGYYVMGWYRQAPGKERELVAGISTGGSTYYADSVKGRFTISRDNAKNTVYLQMNSLKPEDTAVYYCAADYTLSYWGFVYWGQGTQVTVSS	low polyreactivity
QVQLVESGGGLVQAGGILRLSCAASGSTFESNTMGGYRQAPGKERELVAAISYSGGRTYYADSVKGRFTISRDNAKNTVYLQMNSLKPEDTAVYYCAARWSVSYHYWGQGTQVTVSS	high polyreactivity
QVQLVESGGGLVQAGGILRLSCAASGSTFVPNTMAWYRQAPGKERELVAAITYSGGSTYYADSVKGRFTISRDNAKNTVYLQMNSLKPEDTAVYYCAAEGTTWYYDMDYWGQGTQVTVSS	low polyreactivity
QVQLVESGGGLVQAGGILRLSCAASGSTLGYYAMGWYRQAPGKERELVAAISWSGGRTYYADSVKGRFTISRDNAKNTVYLQMNSLKQEDTAFYYCNALNRTHYTGSDFYSWGQGTQVTVSS	high polyreactivity
QVQLVESGGGLVQAGGILRLSCAASGYTFYFYAMGWYRQAPGKERELVAAITGGGTTSYADSVKGRFTISRDNAKNTVYLQMNSLKPEDTAVYYCNVLFADKSDYWGQGTQVTVSS	low polyreactivity
QVQLVESGGGLVQAGGILRLSCASSGSTFPTNAMGWYTQAPGKERELVAAISSSGGRTYYADSVKGRFTISRDNAKNTVDLQMNSLKPEDTAVYSCAAVWWRAYAVRMYYWGQGTQVTVSS	high polyreactivity
QVQLVESGGGLVQAGGILRLSCDASGFTFGYYTMGWYRQAHGKEREFVAAITGGSGSTYYADSVKGRFTISRDNAKNTVYLQMNSLKPEDTAVYYCAASIWRGLTPLLIGFDYWGQGTQVTVSS	high polyreactivity
QVQLVESGGGLVQAGGILRLSCSASGRIFQFYAMGWYRQAPGKERELVAGISWSGGSTNYADSVKGRFTISRDNAKNTVYLQMNSLKPEDSAVYYCNVDLYNWRGDSTGYDYWGQGTQVTVSS	low polyreactivity
QVQLVESGGGLVQAGGILRLSWAASGRTFRYYAMGWYRQAPGKDREFVAAISWSGGSTYYADSVKGRFTISRDNAKNTVYLQMNSLKPEDTAVFYCAAESIYTWGIRGAYWGQGTQVTVSS	high polyreactivity
QVQLVESGGGLVQAGGILSLSCAASGIIFYTYAMGWYRQAPGKERELVATISWDVDSTNYADSVKGRFTISRDNAKNTVYLQMNSLKPEDTAVYYCAVDYTFDSYWYWVDYYEYGYWGQGTQVTVTS	high polyreactivity
QVQLVESGGGLVQAGGILSLSCAASGLIFRKNAKGWYRQAPGKEMELVAAISGRGGITYYADSVKGRFTISRDNAKNTVYLQMNSLKPEDTAVYYCATRFYRPRDGLYDYWGHGTQVTVSS	high polyreactivity
QVQLVESGGGLVQAGGILSLSCAASGNIFAYNAMGWYRQAPGKERELVAAITDSGGNTFYADSVKGRFTISRDNAKNTVYLQMISVKPEDTAVYYCAADPDGWGFVYPRYVSWGQGTQVTVSS	low polyreactivity
QVQLVESGGGLVQAGGNLRLSCAASGFKFTSYAMGCYIQAPGKERELVAAISTSGDRTYYADSVKGRFTISRDNAKNTVYLQMNSLQPEDTAVYYSAVVRPRSVVRYDSWGQGTQVTVSS	high polyreactivity
QVQLVESGGGLVQAGGRHRLSCAASGFIFHVYAMGWYRQAPGKERELVAAISSGGSTYYADSVKGRFTISRDNAKNTVYLQMNSLKPEDTAVYYCNGARSRYRYRYDYWGQGTQVTVSS	high polyreactivity
QVQLVESGGGLVQAGGRLLLSCAASGSTFTRNAMGWYRPAPGKERELVAAISSSGSRTYYADSVKGRFTISRDNAKNTVYLQMNSLIPADTAVYYCNKTKHSYLYTDDDYWGQGTQVTVSS	high polyreactivity
QVQLVESGGGLVQAGGRLRISCAASGFTFEYNDMGWYRQAPGKERELVASISYDSDSTYYADSVKGRFTISRDNAKNTVYLQMNSLKPEDTAVYYCNAGSSYHEYGYWGQGTQVTVSS	high polyreactivity
